Residue numbers refer to the chain shown, from its start.

The target of assay [1] is T1, human ADAMTS5 (human, UniProt Q9UNA0 262-622, limits assumed).
T1 construct: Recombinant protein; also called recombinant human ADAMTS5
T1 sequence: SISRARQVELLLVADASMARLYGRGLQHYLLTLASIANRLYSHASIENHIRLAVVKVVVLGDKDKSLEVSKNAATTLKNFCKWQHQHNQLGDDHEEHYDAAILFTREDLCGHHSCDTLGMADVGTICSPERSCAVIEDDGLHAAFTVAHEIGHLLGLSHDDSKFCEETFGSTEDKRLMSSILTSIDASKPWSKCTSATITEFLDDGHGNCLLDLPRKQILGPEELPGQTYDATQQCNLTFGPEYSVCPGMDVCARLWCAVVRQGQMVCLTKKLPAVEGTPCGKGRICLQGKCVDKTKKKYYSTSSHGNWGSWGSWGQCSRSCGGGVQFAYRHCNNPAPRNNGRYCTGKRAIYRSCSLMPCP
The assay is described as follows: SPR (Biacore T100), ADAMTS5 immobilized on CM5, 100 nM ISVD, Experiment 3.
Description: (§1) Species cross-reactivity was initially evaluated via SPR-based off-rate analysis on a Biacore T100 instrument. Polypeptides were tested for binding to human, cynomolgus monkey (“cyno”), guinea pig, mouse, and bovine ADAMTS5. To this end, recombinant ADAMTS5 was immobilized onto a CM5 chip via amine coupling using EDC and NHS. […] Off-rate for each individual ADAMTS5 was determined by fitting a 1:1 interaction model (Langmuir model) onto the individual dissociation curves using the BIA Evaluation software. As a reference, off-rates on human ADAMTS5 were determined in each experiment.

Assay [2] concerns the target T1, human ADAMTS5. Description: cell-based or functional assay.
Assay [3] has as its target T1, human ADAMTS5. Description: SPR (Biacore T100), ADAMTS5 immobilized on CM5, 100 nM ISVD, Experiment 2.
Description: as §1
The target in a further assay is T2, mouse ADAMTS5 (mouse, UniProt Q9R001 262-622, limits assumed).
T2 sequence (looked up): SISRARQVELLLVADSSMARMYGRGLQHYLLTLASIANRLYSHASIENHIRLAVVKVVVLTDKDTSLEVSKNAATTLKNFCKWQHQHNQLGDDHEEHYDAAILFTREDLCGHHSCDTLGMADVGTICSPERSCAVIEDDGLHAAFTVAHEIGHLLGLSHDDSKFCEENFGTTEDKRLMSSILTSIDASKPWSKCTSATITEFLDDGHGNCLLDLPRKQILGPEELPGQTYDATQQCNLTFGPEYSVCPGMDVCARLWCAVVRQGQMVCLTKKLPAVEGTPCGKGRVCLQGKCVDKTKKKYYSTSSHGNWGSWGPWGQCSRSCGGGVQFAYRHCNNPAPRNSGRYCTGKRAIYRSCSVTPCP
The description is as above.

A further assay has as its target guinea pig ADAMTS5 (guinea pig). The assay is described as follows: SPR (Biacore T100), ADAMTS5 immobilized on CM5, 100 nM ISVD, Experiment 1.
Assay [4] addresses T1, human ADAMTS5. The assay is described as above.
Description: as §1
The target of assay [5] is T3, cynomolgus ADAMTS5 (cynomolgus, UniProt A0A2K5X879 260-620).
T3 construct: also called cyno ADAMTS5
T3 sequence: T1 sequence with L214Q, S356G
Described as above.
Description: as §1

Assay [6] addresses T4, rat MMP13 (activated) (rat, UniProt P23097 99-466). Description: cell-based or functional assay.
The target in assay [7] is T5, human MMP13 (activated) (human, UniProt P45452 104-471). The assay is described as follows: cell-based or functional assay.
In another assay the target is dog MMP13 (activated) (dog, UniProt A0A8I3MWY2 129-496). Description: cell-based or functional assay.
The next assay has as its target bovine MMP13 (activated) (bovine, UniProt O77656 104-471, limits assumed). The assay is described as follows: cell-based or functional assay.
In assay [8] the target is cynomolgus MMP13 (activated) (cynomolgus, UniProt A0A2K5U988 104-471). The assay is described as follows: cell-based or functional assay.
The target in assay [9] is T4, rat MMP13 (activated). The assay is described as follows: FRET-based kinetic enzyme assay, IC50 equals KI (average, N=2).
Description: (§2) All dilutions were made in assay buffer (50 mM Tris (pH 7.5), 100 mM NaCl, 10 mM CaCl₂)*2H₂O, 0.01% Tween20). […] This collagen-based substrate contains the generic MMP cleavage sequence Proline-Leucine-Glycine-Leucine (PLGL) and is labelled with a fluorochrome, Mca, and a quencher, Dpa. […] Starting within one minute after addition of the substrate, fluorescence was measured kinetically every minute for a total of 120 cycles (2 hours) using a Tecan F200 plate reader.
(§3) The obtained progress curves (fluorescent signal in function of reaction time) were analyzed using GraphPad Prism software, by fitting the linear portion of each progress curve with a straight line (Y=slope*X+Y-intercept).
Assay [10] deals with T4, rat MMP13 (activated). Description: cell-based or functional assay. This is another data set of the same source.
Assay [11] deals with T6, cynomolgus MMP13 catalytic domain (cynomolgus, UniProt A0A2K5U988 104-274). The assay is described as follows: cell-based or functional assay.
Assay [12] deals with T7, human MMP13 catalytic domain (human, UniProt P45452 104-274). Description: cell-based or functional assay.
Assay [13] concerns the target T8, rat MMP13 catalytic domain (rat, UniProt P23097 99-269). Description: cell-based or functional assay.
The target in assay [14] is T1, human ADAMTS5. The assay is described as follows: KinExA, in solution, in presence of 2 nM Aggrecan G1-IGD-G2 (average, N=3).
Description: (§4) All dilutions were prepared in sample buffer (PBS+0.1% BSA+0.02% NaN₃).
(§5) Percent free Nanobody construct was plotted as a function of ADAMTS5 concentration and fitted using the KinExA Pro Software v3.6.5 to determine the KD.
The target of assay [15] is T5, human MMP13 (activated). The assay is described as follows: FRET-based kinetic enzyme assay, IC50 equals KI (average, N=3).
Description: as §2, §3
The target in assay [16] is T6, cynomolgus MMP13 catalytic domain. The description is as above.
Description: as §2, §3
Assay [17] addresses T8, rat MMP13 catalytic domain. Described as above.
Description: as §2, §3
Assay [18] addresses T9, recombinant rat Aggrecan G1-IGD-G2 (rat, UniProt P07897 20-684, limits assumed).
T9 construct: domain: G1-IGD-G2; also called Rat G1-IGD-G2
The assay is described as follows: SPR (ProteOn XPR36), Aggrecan G1-IGD-G2 immobilized, 949 as analyte (average, N=3).
Description: (§6) Dissociation time was 10 min. After each sample injection the surfaces were regenerated with 10 mM glycine pH 1.5. […] This change in refractive index causes a change in the intensity and angle of reflected light which is quantitatively measured in real-time and plotted as response units (RU) versus time on a sensorgram. The kinetic constants were calculated from the obtained sensorgrams using ProteOn Manager 3.1.0 version 3.1.0.6 software and the ‘kinetic Langmuir kₐ/kd simultaneous’ model.

Assay [19] concerns the target T7, human MMP13 catalytic domain. Description: FRET-based kinetic enzyme assay, IC50 equals KI (average, N=6).
Description: as §2, §3
Another assay addresses T10, rat ADAMTS5 (rat, UniProt Q6TY19 262-928).
T10 sequence: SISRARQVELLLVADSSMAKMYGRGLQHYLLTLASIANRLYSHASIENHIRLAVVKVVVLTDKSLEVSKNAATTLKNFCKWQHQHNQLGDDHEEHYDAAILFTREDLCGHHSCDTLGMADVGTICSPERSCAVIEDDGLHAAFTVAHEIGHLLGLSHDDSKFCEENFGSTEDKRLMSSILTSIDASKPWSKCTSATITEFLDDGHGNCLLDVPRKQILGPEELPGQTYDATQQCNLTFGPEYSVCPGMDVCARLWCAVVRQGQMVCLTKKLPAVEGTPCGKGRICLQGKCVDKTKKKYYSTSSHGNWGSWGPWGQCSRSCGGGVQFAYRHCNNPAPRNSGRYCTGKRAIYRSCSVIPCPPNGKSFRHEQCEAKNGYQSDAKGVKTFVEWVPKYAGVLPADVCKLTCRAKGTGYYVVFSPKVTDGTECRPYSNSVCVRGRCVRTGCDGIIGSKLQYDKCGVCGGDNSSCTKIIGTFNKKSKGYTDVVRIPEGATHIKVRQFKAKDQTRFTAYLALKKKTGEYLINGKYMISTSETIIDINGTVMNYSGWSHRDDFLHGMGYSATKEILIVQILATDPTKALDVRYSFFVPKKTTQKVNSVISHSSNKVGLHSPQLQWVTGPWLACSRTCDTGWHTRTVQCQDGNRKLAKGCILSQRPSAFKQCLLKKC
The assay is described as follows: KinExA, in solution (N=1).

Assay [20] addresses T3, cynomolgus ADAMTS5. The assay is described as follows: KinExA, in solution (N=1).
Description: as §4, §5
Assay [21] addresses T1, human ADAMTS5. Description: KinExA, in solution, without Aggrecan G1-IGD-G2 (average, N=3).
Description: as §4, §5
The target of assay [22] is T11, recombinant human Aggrecan G1-IGD-G2 (human, UniProt P16112 20-676).
T11 construct: also called Hu G1-IGD-G2
The assay is described as follows: SPR (ProteOn XPR36), Aggrecan G1-IGD-G2 immobilized, 949 as analyte (average, N=4).
Description: as §6

For assay [23], the target named is T12, recombinant cynomolgus Aggrecan G1-IGD-G2 (cynomolgus).
T12 construct: domain: G1-IGD-G2; also called Cy G1-IGD-G2
Description: SPR (ProteOn XPR36), Aggrecan G1-IGD-G2 immobilized, 949 as analyte (average, N=2).
Description: as §6

Assay [24] concerns the target T1, human ADAMTS5. Description: cell-based or functional assay. The source holds these as a separate data set.
The target of assay [25] is T3, cynomolgus ADAMTS5. The assay is described as follows: cell-based or functional assay.

Description for guinea pig ADAMTS5: as §1
Description for mouse ADAMTS5: as §1
Description for rat ADAMTS5: as §4, §5

B1: anti-ADAMTS5 ISVD 02F03 (VHH)
VHH: EVQLVESGGGVVQPGGSLRLSCAASGRTVSSYAMGWFRQAPGKEREFVAGISRSAERTYYVDSLKGRFTISRDNSKNTVYLQMNSLRPEDTALYYCAADLDPNRIFSREEYAYWGQGTLVTVSS
notes: Purified monovalent ISVD; also called 2F03 ATS5
As for B1, the koff was determined as 9.7e-05 s⁻¹ in the assay with human ADAMTS5 [1]; 6.5e-05 s⁻¹ with human ADAMTS5 [3]; 0.00029 s⁻¹ in the assay with mouse ADAMTS5; 3.4e-05 s⁻¹ with guinea pig ADAMTS5; 3.3e-05 s⁻¹ in the assay with human ADAMTS5 [4]; 2.2e-05 s⁻¹ with cynomolgus ADAMTS5 [5]. In addition, in the assay with human ADAMTS5 [2], the “IC50, Human AlphaLISA enzymatic assay” value was determined as 0.075 nM. Also, the “IC50, Human FRET enzymatic assay” value with human ADAMTS5 [2] was 1.8 nM.

B2: anti-MMP13 ISVD 62C02 (VHH)
VHH: EVQLVESGGGVVQPGGSLRLSCAASGFAFSAAYMSWVRQAPGKGLEWVSSISDDGSKTYYADSVKGRFTISRDNSKNTVYLQMNSLRPEDTALYYCNTGYGATTTRPGRYWGQGTLVTVSS
As for B2, in the assay with rat MMP13 (activated) [6], the “IC50, rat fluorogenic peptide assay” value came out at 1.1 nM. Also, in the assay with human MMP13 (activated) [7], the “IC50, human collagenolytic assay” value is 1.4 nM; the “IC50, human fluorogenic collagen assay” value was 8.3 nM; the “IC50, human fluorogenic peptide assay” value is 1.4 nM. Besides, the “IC50, dog fluorogenic peptide assay” value with dog MMP13 (activated) stood at 1 nM. Besides, in the assay with bovine MMP13 (activated), the “IC50, bovine fluorogenic peptide assay” value is 3.1 nM. The “IC50, cyno fluorogenic peptide assay” value in assay [8] is 1.4 nM.

B3: polypeptide 949 (62C02-2F03-114F08-114F08, 35GS linkers) (other)
chain: EVQLVESGGGVVQPGGSLRLSCAASGFAFSAAYMSWVRQAPGKGLEWVSSISDDGSKTYYADSVKGRFTISRDNSKNTVYLQMNSLRPEDTALYYCNTGYGATTTRPGRYWGQGTLVTVSSGGGGSGGGGSGGGGSGGGGSGGGGSGGGGSGGGGSEVQLVESGGGVVQPGGSLRLSCAASGRTVSSYAMGWFRQAPGKEREFVAGISRSAERTYYVDSLKGRFTISRDNSKNTVYLQMNSLRPEDTALYYCAADLDPNRIFSREEYAYWGQGTLVTVSSGGGGSGGGGSGGGGSGGGGSGGGGSGGGGSGGGGSEVQLVESGGGVVQPGGSLRLSCAASGSTFIINVVRWYRRAPGKQRELVATISSGGNANYVDSVRGRFTISRDNSKNTVYLQMNSLRPEDTALYYCNVPTTHYGGVYYGPYWGQGTLVTVSSGGGGSGGGGSGGGGSGGGGSGGGGSGGGGSGGGGSEVQLVESGGGVVQPGGSLRLSCAASGSTFIINVVRWYRRAPGKQRELVATISSGGNANYVDSVRGRFTISRDNSKNTVYLQMNSLRPEDTALYYCNVPTTHYGGVYYGPYWGQGTLVTVSSA
notes: Tetravalent, trispecific VHH construct: anti-MMP13, anti-ADAMTS5 and two anti-Aggrecan units; also called C010100949; ALX-1011
For B3, the Ki in the assay with rat MMP13 (activated) [9] was 13 nM; with human MMP13 (activated) [15] it was 2.92 nM; in assay [16], 20.2 nM; in assay [17], 26.6 nM; in assay [19], 27.9 nM. Besides, in the assay with rat MMP13 (activated) [10], the “IC50 (read off the curve); FRET-based enzymatic activity assay, Vi/V0 [right panel]” value was ~10 nM. Moreover, the “IC50 (read off the curve); FRET-based enzymatic activity assay, Vi/V0 [left panel]” value was ~20 nM in assay [11], ~30 nM in assay [12] and ~30 nM in assay [13]. In addition, the Kd with human ADAMTS5 [14] stood at 0.0266 nM; in assay [18], 0.0166 nM; in the assay with rat ADAMTS5, 0.0252 nM; with cynomolgus ADAMTS5 [20], 0.0244 nM; with human ADAMTS5 [21] it was 0.0327 nM; in assay [22], 0.014 nM. The Kd in assay [23] was found to be 0.016 nM. In addition, the “IC50 (read off the curve); FRET-based enzymatic activity assay, Vi/V0” value with human ADAMTS5 [24] was ~4 nM; with cynomolgus ADAMTS5 [25] it was 3 to 4 nM.

The values are drawn from US20240181006A1 (Merck KGaA, published 2024).
